Results: the supplement of paper PMC10567573

B1: MFF (parent)
chain: YTEGISQRMRVPEKLKVAPPNADL

Variants of: B1
Assay: protein stability index of a GFP-peptide fusion (GPS, HEK-293T) (PSI 1-6); higher = more stable
Settings: c terminus: a fixed tail appended
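Further: lentivirally expressed fusions sorted by FACS into six bins by GFP to DsRed ratio, PSI derived from sequencing read proportions per bin multiplied by bin number.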

Protein stability index of substitutions, site by site:
T2: V 2.46 | L 2.13 | D 4.18 | A 2.72 | W 3.17 | M 3.46 | Y 3.2 | G 3.85 | H 2.69 | F 3.2 | I 1.65 | R 3.88 | N 3.69
R8: A 2.82 | F 1.95 | W 2.3 | P 2.81 | D 3.76 | Y 1.75 | I 1.57 | L 2.2 | H 2.28 | G 2.47
A22: C 2.62 | H 2.69 | Y 2.56 | M 2.68
V11: Q 2.62 | A 2.89 | T 3.24 | M 3.11 | W 2.18 | E 2.84 | S 3.29 | I 2.96 | K 2.76
L24: R 2.89 | E 3.74 | I 2.8 | H 3.52 | Y 2.6 | S 2.86 | Q 3.14 | G 2.91 | N 3.08 | D 3.88 | P 2.92
L15: K 3.19 | R 2.58 | A 3.15 | H 2.91 | D 3.08
V17: I 2.54 | F 2.6 | P 3.31 | K 3.29 | H 2.9 | A 2.82
P12: N 2.96 | R 2.82 | G 2.46 | E 2.69
A18: E 3.03 | Y 2.59 | G 2.54 | R 2.67 | C 2.77
R10: M 2.48 | V 2.49 | F 1.44 | N 2.59 | D 2.71 | Y 2.08 | G 2.83 | S 2.72
Q7: H 1.81 | N 2.74 | K 2.39 | A 2.97 | W 2.21 | V 3.21 | M 2.59
N21: T 2.71 | S 3.24 | H 2.91 | Y 2.5
M9: G 2.89 | T 2.74 | V 2.35 | C 2.49 | N 2.96 | F 3.02 | I 2.2
P20: F 2.01 | Y 2.04 | E 3.55 | V 3.06 | M 2.66 | Q 3.44 | W 2.35
I5: N 4.03 | G 3.72 | M 3.4 | K 4.18 | D 4.55 | V 3.63 | T 3.9 | A 4.19 | C 4.16
K16: S 3.62 | C 2.81 | Q 2.67 | V 2.9
D23: T 2.38 | W 2.23 | G 2.72 | V 2.12 | A 2.34
K14: M 3.39 | S 3.38 | N 3.44 | D 3.13
E13: W 2.16 | Y 2.54 | V 2.79 | L 2.33 | C 2.53 | T 2.57 | Q 2.65 | N 2.53
P19: H 2.54 | V 3.29 | K 2.71 | Y 2.33 | R 2.43 | N 2.78 | D 3.37 | G 2.78
Y1: Q 4.41 | R 4.22 | T 4.31 | H 4.52 | M 4.59 | C 4.21
G4: M 2.52 | I 3 | A 3.9 | T 3.45 | V 3.21 | D 4.46
S6: V 2.19 | P 2.29 | C 2.6 | L 2.85 | G 2.86 | Q 2.71 | F 2.14 | Y 3.1 | E 3.91
E3: A 2.96 | G 2.3 | I 2.42 | V 2.44 | F 1.9 | N 3.3 | K 2.41 | W 1.53
